From PMC8878202, “Interdisciplinary Study of the Effects of Dipeptidyl-Peptidase III Cancer Mutations on the KEAP1-NRF2 Signaling Pathway” (International Journal of Molecular Sciences, 2022) come the findings set out here.

Substitutions are numbered along the chain they refer to. In names and notes the source's numbering stands.

The assay concerns the target T1, Kelch domain of KEAP1 protein (UniProt Q14145 321-609, fluorescently labeled with RED-MALEIMIDE (Cysteine reactive) fluorescent dye).
T1 construct: Kelch domain of KEAP1 (Kelch-like ECH associated protein 1); plasmid pET15b with Kelch insert, gift of Mark Hannink; also called Kelch-like ECH associated protein 1 (Kelch domain); source: E. coli BL21-(DE3)-RIL+, purified (Ni-NTA agarose)
Kind of assay: MST; Kelch domain labeled with RED-MALEIMIDE, 50 nM; DPP III or variant added; binding-induced fluorescence change on Monolith NT.115; 25 °C; 50 mM Tris, 100 mM NaCl, pH 8.2, 0.05% Tween; triplicate. Conditions: both partners purified.

T1 sequence (Q14145 321-609): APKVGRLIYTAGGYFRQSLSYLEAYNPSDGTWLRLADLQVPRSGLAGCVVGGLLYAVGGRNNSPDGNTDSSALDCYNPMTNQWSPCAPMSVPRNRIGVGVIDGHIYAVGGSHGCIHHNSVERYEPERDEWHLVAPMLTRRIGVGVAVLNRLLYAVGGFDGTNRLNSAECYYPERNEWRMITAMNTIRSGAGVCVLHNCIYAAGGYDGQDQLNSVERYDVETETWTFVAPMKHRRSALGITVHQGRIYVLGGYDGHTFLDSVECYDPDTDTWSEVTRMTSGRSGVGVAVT

B1: Dipeptidyl peptidase III, wild type (enzyme, human, UniProt Q9NY33 1-737, looked up)
chain: MADTQYILPNDIGVSSLDCREAFRLLSPTERLYAYHLSRAAWYGGLAVLLQTSPEAPYIYALLSRLFRAQDPDQLRQHALAEGLTEEEYQAFLVYAAGVYSNMGNYKSFGDTKFVPNLPKEKLERVILGSEAAQQHPEEVRGLWQTCGELMFSLEPRLRHLGLGKEGITTYFSGNCTMEDAKLAQDFLDSQNLSAYNTRLFKEVDGEGKPYYEVRLASVLGSEPSLDSEVTSKLKSYEFRGSPFQVTRGDYAPILQKVVEQLEKAKAYAANSHQGQMLAQYIESFTQGSIEAHKRGSRFWIQDKGPIVESYIGFIESYRDPFGSRGEFEGFVAVVNKAMSAKFERLVASAEQLLKELPWPPTFEKDKFLTPDFTSLDVLTFAGSGIPAGINIPNYDDLRQTEGFKNVSLGNVLAVAYATQREKLTFLEEDDKDLYILWKGPSFDVQVGLHELLGHGSGKLFVQDEKGAFNFDQETVINPETGEQIQSWYRSGETWDSKFSTIASSYEECRAESVGLYLCLHPQVLEIFGFEGADAEDVIYVNWLNMVRAGLLALEFYTPEAFNWRQAHMQARFVILRVLLEAGEGLVTITPTTGSDGRPDARVRLDRSKIRSVGKPALERFLRRLQVLKSTGDVAGGRALYEGYATVTDAPPECFLTLRDTVLLRKESRKLIVQPNTRLEGSDVQLLEYEASAAGLIRSFSERFPEDGPELEEILTQLATADARFWKGPSEAPSGQA
notes: Dipeptidyl peptidase III (DPP III, EC 3.4.14.4), human, wild type, cloned into pLATE31; also called DPP III; WT DPP III; source: E. coli BL21-(DE3)-RIL+, purified (Ni-NTA agarose)
Turning to B1, the “Kd(WT)/Kd(mut)” value came out at 1.

B2: DPP III G482C variant (enzyme, human, UniProt Q9NY33 1-737, looked up)
chain: B1 chain with G482C
notes: source: E. coli BL21-(DE3)-RIL+, purified (Ni-NTA agarose)
Take B2: the “Kd(WT)/Kd(mut)” value was determined as 0.8.

B3: DPP III E480Q variant (enzyme, human, UniProt Q9NY33 1-737, looked up)
chain: B1 chain with E480Q
notes: as for B2
Take B3: the “Kd(WT)/Kd(mut)” value amounted to 0.1.

B4: DPP III R510W variant (enzyme, human, UniProt Q9NY33 1-737, looked up)
chain: B1 chain with R510W
notes: as for B2
Regarding B4, the “Kd(WT)/Kd(mut)” value came to 0.3.

B5: DPP III R638L variant (enzyme, human, UniProt Q9NY33 1-737, looked up)
chain: B1 chain with R638L
notes: as for B2
As for B5, the “Kd(WT)/Kd(mut)” value amounted to 2.

B6: DPP III T481M variant (enzyme, human, UniProt Q9NY33 1-737, looked up)
chain: B1 chain with T481M
notes: as for B2
As for B6, the “Kd(WT)/Kd(mut)” value amounted to 0.1.

B7: DPP III Q484H variant (enzyme, human, UniProt Q9NY33 1-737, looked up)
chain: B1 chain with Q484H
notes: as for B2
With B7, the “Kd(WT)/Kd(mut)” value was 2.1.

B8: DPP III R638W variant (enzyme, human, UniProt Q9NY33 1-737, looked up)
chain: B1 chain with R638W
notes: as for B2
In the case of B8, the “Kd(WT)/Kd(mut)” value came out at 2.

B9: DPP III R703C variant (enzyme, human, UniProt Q9NY33 1-737, looked up)
chain: B1 chain with R703C
notes: as for B2
As for B9, the “Kd(WT)/Kd(mut)” value worked out at 1.7.

B10: DPP III E451K variant (enzyme, human, UniProt Q9NY33 1-737, looked up)
chain: B1 chain with E451K
notes: as for B2
Consider B10, for which the “Kd(WT)/Kd(mut)” value stood at 2.1.

B11: DPP III P479S variant (enzyme, human, UniProt Q9NY33 1-737, looked up)
chain: B1 chain with P479S
notes: as for B2
Consider B11, for which the “Kd(WT)/Kd(mut)” value turned out to be 18.4.
